# Article PMC3652662 (Journal of molecular recognition : JMR, 2009)
# Starred links: 1 amine or outer side, 2 acyl side, 3 side chain; linkers in the order of their positions; H or OH if unused. Non-standard residues stand in square brackets, D forms with d. No end group written: not given here. X1 = (2S,4S)‑4‑(4-ferrocenyl-1H-1,2,3-triazol-1-yl)pyrrolidine‑2‑carboxylic acid, O=C([C@@H]1C[C@H](n2cc(-[c-]3cccc3)nn2)CN1[*:1])[*:2].[Fe+2].c1cc[cH-]c1
# Assays:
# HIV-1_(SF162) gp120 = HIV-1_(SF162) gp120 (HIV-1 (strain SF162, clade B)); experiment: SPR
# HIV-1_(92UG037-08) gp120 = HIV-1_(92UG037-08) gp120 (HIV-1 (strain 92UG037-08, clade A)); experiment: SPR
binder,measurement,setting,value
"RINNI[X1]WSEAMM-NH2 [HNG-156, ferrocene triazole peptide conjugate]",Kd,HIV-1_(SF162) gp120,9 nM
same,Kd,HIV-1_(92UG037-08) gp120,16.3 nM
